Measurements: patent publication US20240409906, “INTEGRASES, LANDING PAD ARCHITECTURES, AND ENGINEERED CELLS COMPRISING THE SAME” (Asimov Inc., published 2024)

Key:
Details in all cases: tags: C-terminal GS linker-SV40 NLS
Int2 = target: T1, Int2 (Streptomyces scabiei 87.22); assay: cell_activity; attB x attP EGFP inversion reporter, HEK293FT
T1 chain: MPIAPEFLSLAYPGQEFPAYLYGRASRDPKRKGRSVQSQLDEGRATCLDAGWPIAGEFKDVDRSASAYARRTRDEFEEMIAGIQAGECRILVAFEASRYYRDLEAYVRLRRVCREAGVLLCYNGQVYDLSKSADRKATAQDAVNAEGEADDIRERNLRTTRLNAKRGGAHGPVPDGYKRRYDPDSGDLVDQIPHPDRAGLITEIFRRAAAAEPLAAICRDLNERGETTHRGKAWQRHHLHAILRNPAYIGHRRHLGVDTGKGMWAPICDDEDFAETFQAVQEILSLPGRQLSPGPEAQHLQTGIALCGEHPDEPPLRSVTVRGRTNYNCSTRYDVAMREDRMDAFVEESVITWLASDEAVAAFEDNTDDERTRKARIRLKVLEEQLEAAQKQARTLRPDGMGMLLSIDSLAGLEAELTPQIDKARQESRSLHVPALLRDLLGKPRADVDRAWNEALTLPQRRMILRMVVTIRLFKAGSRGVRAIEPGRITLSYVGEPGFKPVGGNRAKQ

Int8 = target: T2, Int8 (Staphylococcus haemolyticus JCSC1435); assay: as above
T2 chain: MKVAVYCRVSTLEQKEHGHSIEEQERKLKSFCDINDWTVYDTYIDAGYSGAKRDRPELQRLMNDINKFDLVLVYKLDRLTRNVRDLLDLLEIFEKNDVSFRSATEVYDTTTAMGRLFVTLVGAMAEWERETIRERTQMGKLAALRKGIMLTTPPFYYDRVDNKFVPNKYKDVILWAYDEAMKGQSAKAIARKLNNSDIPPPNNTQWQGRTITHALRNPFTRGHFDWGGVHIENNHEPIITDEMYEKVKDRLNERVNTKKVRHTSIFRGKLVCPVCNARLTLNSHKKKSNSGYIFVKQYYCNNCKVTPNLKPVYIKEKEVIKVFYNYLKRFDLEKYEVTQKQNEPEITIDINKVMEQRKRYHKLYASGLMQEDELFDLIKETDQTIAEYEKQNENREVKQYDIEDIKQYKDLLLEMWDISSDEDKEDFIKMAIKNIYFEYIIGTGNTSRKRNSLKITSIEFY

Int9 = target: T3, Int9 (Staphylococcus aureus str. Newman); assay: cell_activity
T3 chain: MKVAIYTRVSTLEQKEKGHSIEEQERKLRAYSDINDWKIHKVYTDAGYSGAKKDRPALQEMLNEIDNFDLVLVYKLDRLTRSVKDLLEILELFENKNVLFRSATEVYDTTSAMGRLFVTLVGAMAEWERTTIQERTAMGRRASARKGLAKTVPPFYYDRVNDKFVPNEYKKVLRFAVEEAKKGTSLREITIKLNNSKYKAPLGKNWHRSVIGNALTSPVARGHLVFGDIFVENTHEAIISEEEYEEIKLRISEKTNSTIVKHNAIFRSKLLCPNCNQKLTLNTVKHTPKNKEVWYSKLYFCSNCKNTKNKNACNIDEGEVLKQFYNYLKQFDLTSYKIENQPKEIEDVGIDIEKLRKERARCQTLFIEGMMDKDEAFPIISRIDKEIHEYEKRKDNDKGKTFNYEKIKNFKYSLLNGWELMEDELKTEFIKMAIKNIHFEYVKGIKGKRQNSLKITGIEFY

Int10 = target: T4, Int10 (Streptococcus pneumoniae 670-6B); assay: cell_activity
T4 chain: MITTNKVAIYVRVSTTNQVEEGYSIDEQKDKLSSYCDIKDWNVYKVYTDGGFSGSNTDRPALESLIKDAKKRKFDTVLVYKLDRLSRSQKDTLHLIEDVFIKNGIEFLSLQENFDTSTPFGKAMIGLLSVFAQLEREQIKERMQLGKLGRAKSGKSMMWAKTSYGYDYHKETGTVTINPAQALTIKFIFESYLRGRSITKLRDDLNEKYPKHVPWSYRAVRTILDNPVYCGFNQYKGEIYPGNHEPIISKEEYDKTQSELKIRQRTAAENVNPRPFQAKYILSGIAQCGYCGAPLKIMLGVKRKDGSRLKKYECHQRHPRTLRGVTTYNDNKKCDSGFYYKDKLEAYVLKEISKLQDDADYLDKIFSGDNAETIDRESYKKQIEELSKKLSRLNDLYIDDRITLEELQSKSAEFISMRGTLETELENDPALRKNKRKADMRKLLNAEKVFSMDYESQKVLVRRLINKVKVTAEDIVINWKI

Int11 = Int11 (Clostridium botulinum B str. Eklund 17B); assay: cell_activity; attB x attP EGFP inversion reporter, HEK293FT

B1: Int2 attB (dsDNA)
DNA 1: GGACGGCGCAGAAGGGGAGTAGCTCTTCGCCGGACCGTCGACATACTGCTCAGCTCGTC
DNA 2: GACGAGCTGAGCAGTATGTCGACGGTCCGGCGAAGAGCTACTCCCCTTCTGCGCCGTCC
With B1 the binding signal (Int2) was 0.17 fraction of Bxb1.

B2: Int2 attP (dsDNA)
DNA 1: GCTCATGTATGTGTCTACGCGAGATTCTCGCCCGAGAACTTCTGCAAGGCACTGCTCTTGGCT
DNA 2: AGCCAAGAGCAGTGCCTTGCAGAAGTTCTCGGGCGAGAATCTCGCGTAGACACATACATGAGC
B2 was tested, and the binding signal (Int2) was 0.17 fraction of Bxb1.

B3: Int8 attB (dsDNA)
DNA 1: CAATCATCAGATAACTATGGCGGCACGTGCATTAACCACGGTTGTATCCCGTCTAAAGTACTCGT
DNA 2: ACGAGTACTTTAGACGGGATACAACCGTGGTTAATGCACGTGCCGCCATAGTTATCTGATGATTG
In the case of B3, the binding signal (Int8) is reported as 0.068 fraction of Bxb1.

B4: Int8 attP (dsDNA)
DNA 1: TTAATAAACTATGGAAGTATGTACAGTCTTGCAATGTTGAGTGAACAAACTTCCATAATAAAAT
DNA 2: ATTTTATTATGGAAGTTTGTTCACTCAACATTGCAAGACTGTACATACTTCCATAGTTTATTAA
For B4, the binding signal (Int8) was 0.068 fraction of Bxb1.

B5: Int9 attB (dsDNA)
DNA 1: TTTATATTGCGAAAAATAATTGGCGAACGAGGTAACTGGATACCTCATCCGCCAATTAAAATTTG
DNA 2: CAAATTTTAATTGGCGGATGAGGTATCCAGTTACCTCGTTCGCCAATTATTTTTCGCAATATAAA
B5 was tested, and the binding signal (Int9) was 0.08 fraction of Bxb1.

B6: Int9 attP (dsDNA)
DNA 1: GTGGTTGTTTTTGTTGGAAGTGTGTATCAGGTATCTGCATAGTTATTCCGAACTTCCAATTA
DNA 2: TAATTGGAAGTTCGGAATAACTATGCAGATACCTGATACACACTTCCAACAAAAACAACCAC
For B6, the binding signal (Int9) was 0.08 fraction of Bxb1.

B7: Int10 attB (dsDNA)
DNA 1: AGCACGCTGATAATCAGCAAGACCACCAACATTTCCACCAATGTAAAAGCTTTAACCTTAGC
DNA 2: GCTAAGGTTAAAGCTTTTACATTGGTGGAAATGTTGGTGGTCTTGCTGATTATCAGCGTGCT
With B7 the binding signal (Int10) was 5.49 fraction of Bxb1.

B8: Int10 attP (dsDNA)
DNA 1: GGAAAATATAAATAATTTTAGTAACCTACATCTCAATCAAGGATAGTAAAACTCTCACTCTT
DNA 2: AAGAGTGAGAGTTTTACTATCCTTGATTGAGATGTAGGTTACTAAAATTATTTATATTTTCC
B8 was tested, and the binding signal (Int10) was 5.49 fraction of Bxb1.

B9: Int11 attB (dsDNA)
DNA 1: ATGGATTTTGCAGATTCCCAGATGCCCCTACAGAAAGAGGTACAAAACATTTATTGGAATTAATT
DNA 2: AATTAATTCCAATAAATGTTTTGTACCTCTTTCTGTAGGGGCATCTGGGAATCTGCAAAATCCAT
With B9 the binding signal (Int11) was 1.81 fraction of Bxb1.

B10: Int11 attP (dsDNA)
DNA 1: GTTTATATGTTTACTAATAAGACGCTCTCAACCCATAAAGTCTTATTAGTAAACATATTTCAACT
DNA 2: AGTTGAAATATGTTTACTAATAAGACTTTATGGGTTGAGAGCGTCTTATTAGTAAACATATAAAC
For B10, the binding signal (Int11) was 1.81 fraction of Bxb1.
